Assay results taken from patent US20090053184A1.

Columns and labels:
Test in all cases: chromium release; transduced lymphocytes against T2 cells having HLA-A2 pulsed with 'NY-ESO-1 peptide'; which of the listed peptides not given; full-length, on cells
Conditions in all cases: chains Valpha:Vbeta
[1] = target: T1, NY-ESO-1 peptide on HLA-A*02:01 (human)
T1 chain: SLLMWTTQV

[2] = target: T2, NY-ESO-1 peptide on HLA-A*02:01 (human)
T2 chain: SLLMWTTQC

[3] = target: T3, NY-ESO-1 peptide on HLA-A*02:01 (human)
T3 chain: SLLMWTTQCFLP

Measured: lowest peptide concentration that stimulated killing

B1: anti-NY-ESO-1 TCR (SEQ ID NOS: 6 and 8) (protein)
chain 1: SQQGEEDPQALSIQEGENATMNCSYKTSINNLQWYRQNSGRGLVHLILIRSNEREKHSGRLRVTLDTSKKSSSLLITASRAADTASYFCATDGAGKSTFGDGTTLTVKP
chain 2: DAGVIQSPRHEVTEMGQEVTLRCKPISGHDYLFWYRQTMMRGLELLIYFNNNVPIDDSGMPEDRFSAKMPNASFSTLKIQPSEPRDSAVYFCASTIGAQPQHFGDGTRLSIL
< 0.02 nM: [1] | [2] | [3]
